This note sets out measurements from US7078382 (dated 2006).

For assay [1], the target named is KDR receptor on human umbilical vein endothelial cells (HUVEC) (human, UniProt P35968 20-1356). As to the kind of experiment: cell-based or functional assay.
A further assay concerns the target T1, Flt-IgG (human, UniProt P17948 27-758, limits assumed).
T1 construct: Only described as 'a chimeric Flt-human Fc molecule'; captured by rabbit F(ab')2 to human IgG Fc; also called chimeric Flt-human Fc molecule; not shown: human IgG Fc
As to the kind of experiment: competition ELISA, biotinylated native VEGF as tracer, Flt-IgG captured by anti-human Fc. For orientation: An ELISA detects its analyte on a solid surface through an enzyme-linked reagent.

The target of another assay is T2, KDR (1-3) (UniProt P35968 20-327, limits assumed).
T2 construct: domain: KDR (1-3); Soluble KDR (1-3) at 1 ug/ml, captured on the plate by anti-KDR monoclonal antibody MAKD5; also called KDR (1-3) monomer
Kind of assay: competition ELISA, biotinylated native VEGF (8-109) as tracer, KDR (1-3) captured by mAb MAKD5.

Assay [2] deals with KDR receptor with a gD tag at the N-terminus, on CHO cells (UniProt P35968 20-1356). As to the kind of experiment: cell-based or functional assay.

In general, IC50 refers to the concentration at which inhibition is half-maximal. High values mean weaker potency in that assay, low ones greater potency in that assay.

Chain of KDR receptor on human umbilical vein endothelial cells (HUVEC) (P35968 20-1356): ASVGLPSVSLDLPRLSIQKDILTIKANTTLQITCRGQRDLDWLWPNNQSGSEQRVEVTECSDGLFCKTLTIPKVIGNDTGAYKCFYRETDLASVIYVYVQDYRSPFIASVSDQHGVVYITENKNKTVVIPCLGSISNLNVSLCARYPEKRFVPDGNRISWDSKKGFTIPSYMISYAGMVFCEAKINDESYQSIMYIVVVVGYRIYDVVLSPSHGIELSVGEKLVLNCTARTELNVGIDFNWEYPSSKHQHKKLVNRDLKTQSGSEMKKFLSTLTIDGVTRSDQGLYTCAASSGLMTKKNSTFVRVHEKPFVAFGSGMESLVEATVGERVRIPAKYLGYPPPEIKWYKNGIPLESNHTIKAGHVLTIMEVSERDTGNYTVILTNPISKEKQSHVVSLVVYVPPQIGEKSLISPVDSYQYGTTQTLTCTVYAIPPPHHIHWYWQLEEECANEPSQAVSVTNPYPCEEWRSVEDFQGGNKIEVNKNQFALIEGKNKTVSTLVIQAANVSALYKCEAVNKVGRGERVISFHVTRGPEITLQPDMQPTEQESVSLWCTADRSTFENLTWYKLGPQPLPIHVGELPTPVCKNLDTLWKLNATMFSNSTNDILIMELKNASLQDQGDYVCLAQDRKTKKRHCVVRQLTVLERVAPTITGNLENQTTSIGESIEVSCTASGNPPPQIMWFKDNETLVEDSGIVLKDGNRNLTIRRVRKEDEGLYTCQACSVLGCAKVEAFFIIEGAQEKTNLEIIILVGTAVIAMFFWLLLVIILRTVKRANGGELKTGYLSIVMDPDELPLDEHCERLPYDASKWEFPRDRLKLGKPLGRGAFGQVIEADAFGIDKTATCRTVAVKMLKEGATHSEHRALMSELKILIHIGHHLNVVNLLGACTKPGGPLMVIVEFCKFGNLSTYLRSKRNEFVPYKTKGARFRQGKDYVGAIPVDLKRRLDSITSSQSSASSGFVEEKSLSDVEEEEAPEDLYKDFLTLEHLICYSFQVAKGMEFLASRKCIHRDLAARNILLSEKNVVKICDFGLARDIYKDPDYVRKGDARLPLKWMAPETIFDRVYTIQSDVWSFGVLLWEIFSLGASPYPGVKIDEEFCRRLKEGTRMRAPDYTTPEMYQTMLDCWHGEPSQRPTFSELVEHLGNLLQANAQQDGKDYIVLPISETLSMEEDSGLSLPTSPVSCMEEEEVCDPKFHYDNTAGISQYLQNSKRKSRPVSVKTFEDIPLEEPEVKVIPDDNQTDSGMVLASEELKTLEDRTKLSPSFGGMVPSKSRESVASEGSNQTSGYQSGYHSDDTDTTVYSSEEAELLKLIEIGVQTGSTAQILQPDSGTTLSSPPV
T1 sequence (P17948 27-758 limits assumed): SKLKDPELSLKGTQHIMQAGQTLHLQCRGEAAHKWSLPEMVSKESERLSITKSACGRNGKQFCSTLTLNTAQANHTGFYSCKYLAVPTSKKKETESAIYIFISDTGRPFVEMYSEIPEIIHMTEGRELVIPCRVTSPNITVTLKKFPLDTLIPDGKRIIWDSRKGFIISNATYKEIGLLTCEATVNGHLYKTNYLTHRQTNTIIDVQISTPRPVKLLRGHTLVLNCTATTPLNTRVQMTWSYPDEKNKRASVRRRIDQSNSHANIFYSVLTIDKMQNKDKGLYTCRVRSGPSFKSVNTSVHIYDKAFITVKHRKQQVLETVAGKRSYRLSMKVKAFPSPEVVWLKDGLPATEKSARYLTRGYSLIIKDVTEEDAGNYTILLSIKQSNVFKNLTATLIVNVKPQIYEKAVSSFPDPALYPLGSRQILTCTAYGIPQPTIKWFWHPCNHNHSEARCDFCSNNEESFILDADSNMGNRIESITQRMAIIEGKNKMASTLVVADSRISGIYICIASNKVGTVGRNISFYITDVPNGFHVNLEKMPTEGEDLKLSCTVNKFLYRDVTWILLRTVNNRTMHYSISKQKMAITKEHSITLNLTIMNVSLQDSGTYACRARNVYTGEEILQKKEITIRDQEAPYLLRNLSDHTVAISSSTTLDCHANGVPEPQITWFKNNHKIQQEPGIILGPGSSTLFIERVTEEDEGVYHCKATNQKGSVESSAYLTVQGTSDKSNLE
T2 sequence (P35968 20-327 limits assumed): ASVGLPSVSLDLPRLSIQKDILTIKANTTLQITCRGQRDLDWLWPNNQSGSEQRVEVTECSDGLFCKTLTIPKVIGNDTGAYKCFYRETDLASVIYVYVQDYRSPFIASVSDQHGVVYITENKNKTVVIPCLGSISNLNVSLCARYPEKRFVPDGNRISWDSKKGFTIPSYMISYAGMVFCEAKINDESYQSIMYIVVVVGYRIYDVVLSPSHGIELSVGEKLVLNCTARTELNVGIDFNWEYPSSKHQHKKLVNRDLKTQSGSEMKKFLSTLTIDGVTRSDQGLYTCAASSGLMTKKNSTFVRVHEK

B1: LK-VRB-2f (ligand)
chain: APMAEGGGQNHHEVVKFMDVYQRSYCHPIETLVDIFQEYPDEIEYIFKPSCVPLMRCGGCCNSEMRECVPTEESNITMQIMRIKPHQGQHIGEMSFLQHNKCECRPKKDRARQENPCGPCSERRKHLFVQDPQTCKCSCKNTDSRCKARQLELNERTCRCDKPRR
notes: also called KDR-full
As for B1, in assay [1], the “Endothelial Cell Proliferation Activity (HUVEC, 3H-thymidine), concentration” value is 0.05 nM. In the assay with Flt-IgG, this molecule gave an IC50 of 19 nM.

B2: LK-VRB-17s (ligand)
chain: APMAEGGGQNHHEVVKFEDVLRRSYCHPIETLVDIFQEYPDEIEYIFKPSCVPLMRCGGCCNSEMRECVPTEESNITMQIMRIKPHQGQHIGEMSFLQHNKCECRPKKD
As to B2, in the assay with KDR (1-3), the IC50 is 3 nM and the “Relative Binding Affinity” value was 3 fold of native VEGF (8-109).

B3: LK-VRB-18s (ligand)
chain: APMAEGGGQNHHEVVKFEDVLQRSSCHPIETLVDIFQEYPDEIEYIFKPSCVPLMRCGGCCNSEMRECVPTEESNITMQIMRIKPHQGQHIGEMSFLQHNKCECRPKKD
With B3, in the assay with KDR (1-3), the IC50 stood at 130 nM and the “Relative Binding Affinity” value was 130 fold of native VEGF (8-109).

B4: LK-VRB-21s (ligand)
chain: APMAEGGGQNHHEVVKFEDVLRRSSCHPIETLVDIFQEYPDEIEYIFKPSCVPLMRCGGCCNSEGLECVPTEESNITMQIMRIKPHQGQHIGEMSFLQHNKCECRPKKD
B4: in the assay with KDR (1-3), the IC50 came out at 3 nM and the “Relative Binding Affinity” value is 3 fold of native VEGF (8-109).

B5: LK-VRB-22s (ligand)
chain: APMAEGGGQNHHEVVKFEDVLRRSSCHPIETLVDIFQEYPDEIEYIFKPSCVPLMRCGGCCNDEMLECVPTEESNITMQIMRIKPHQGQHIGEMSFLQHNKCECRPKKD
For B5, in the assay with KDR (1-3), the IC50 worked out at 4 nM and the “Relative Binding Affinity” value is 4 fold of native VEGF (8-109).

B6: LK-VRB-4s (ligand)
chain: APMAEGGGQNHHEVVKIEDVFERSICHPIETLVDIFQEYPDEIEYIFKPSCVPLMRCGGCCNDEGLECVPTEESNITMQIMRIKPHQGQHIGEMSFLQHNKCECRPKKD
For the molecule B6, in assay [2], the “Phosphorylation-Inducing Activity (KIRA), concentration at midpoint” value was determined as 1 nM and the “Phosphorylation-Inducing Activity (KIRA), ratio to native VEGF (8-109)” value is 0.5 fold of native VEGF (8-109). In the assay with Flt-IgG, the IC50 is 100 nM and the “Relative Binding Affinity” value was 200 fold of native VEGF (8-109). In the assay with KDR (1-3), the IC50 amounted to 1 nM and the “Relative Binding Affinity” value was 1 fold of native VEGF (8-109).

B7: LK-VRB-12s (ligand)
chain: APMAEGGGQNHHEVVKFEDVYRRSYCHPIETLVDIFQEYPDEIEYIFKPSCVPLMRCGGCCNSEMRECVPTEESNITMQIMRIKPHQGQHIGEMSFLQHNKCECRPKKD
Turning to B7, in the assay with KDR (1-3), the concentration for half-maximal inhibition (IC50) stood at 0.4 nM and the “Relative Binding Affinity” value is 0.4 fold of native VEGF (8-109).

B8: LK-VRB-25s (ligand)
chain: APMAEGGGQNHHEVVKFEDVLRRSSCHPIETLVDIFQEYPDEIEYIFKPSCVPLMRCGGCCNSEGRECVPTEESNITMQIMRIKPHQGQHIGEMSFLQHNKCECRPKKD
B8: in the assay with KDR (1-3), the IC50 stood at 4 nM and the “Relative Binding Affinity” value is 4 fold of native VEGF (8-109).

B9: LK-VRB-14s (ligand)
chain: APMAEGGGQNHHEVVKFMDVLRRSYCHPIETLVDIFQEYPDEIEYIFKPSCVPLMRCGGCCNSEMRECVPTEESNITMQIMRIKPHQGQHIGEMSFLQHNKCECRPKKD
As to B9, in the assay with KDR (1-3), the half-inhibitory concentration (IC50) was 0.5 nM and the “Relative Binding Affinity” value is 0.5 fold of native VEGF (8-109).

B10: LK-VRB-8s* (ligand)
chain: APMAEGGGQNHHEVVKFMDVLQRSYCHPIETLVDIFQEYPDEIEYIFKPSCVPLMRCGGCCNSEMRECVPTEESNITMQIMRIKPHQGQHIGEMSFLQHNKCECRPKKD
Regarding B10, in assay [1], the “Endothelial Cell Proliferation Activity (HUVEC, 3H-thymidine), concentration” value was determined as 0.5 nM and the “Endothelial Cell Proliferation Activity (HUVEC, 3H-thymidine), ratio to native VEGF (8-109)” value was 1 fold of native VEGF (8-109). In addition, the “Relative Binding Affinity” value with Flt-IgG is > 21000 fold of native VEGF (8-109). Also, in the assay with KDR (1-3), the IC50 was found to be 0.5 nM and the “Relative Binding Affinity” value is 0.5 fold of native VEGF (8-109).

B11: LK-VRB-10s (ligand)
chain: APMAEGGGQNHHEVVKFMDVYQRSSCHPIETLVDIFQEYPDEIEYIFKPSCVPLMRCGGCCNSEMRECVPTEESNITMQIMRIKPHQGQHIGEMSFLQHNKCECRPKKD
With B11, in the assay with KDR (1-3), the IC50 was found to be 0.5 nM and the “Relative Binding Affinity” value is 0.5 fold of native VEGF (8-109).

B12: LK-VRB-26s (ligand)
chain: APMAEGGGQNHHEVVKFEDVLRRSSCHPIETLVDIFQEYPDEIEYIFKPSCVPLMRCGGCCNDEMRECVPTEESNITMQIMRIKPHQGQHIGEMSFLQHNKCECRPKKD
For B12, in the assay with KDR (1-3), the IC50 was 23 nM and the “Relative Binding Affinity” value was 23 fold of native VEGF (8-109).

B13: LK-VRB-20s (ligand)
chain: APMAEGGGQNHHEVVKFMDVLRRSSCHPIETLVDIFQEYPDEIEYIFKPSCVPLMRCGGCCNSEMRECVPTEESNITMQIMRIKPHQGQHIGEMSFLQHNKCECRPKKD
On to B13, for which, in the assay with KDR (1-3), the IC50 was determined as 2 nM and the “Relative Binding Affinity” value is 2 fold of native VEGF (8-109).

B14: LK-VRB-23s (ligand)
chain: APMAEGGGQNHHEVVKFEDVLRRSSCHPIETLVDIFQEYPDEIEYIFKPSCVPLMRCGGCCNDEGRECVPTEESNITMQIMRIKPHQGQHIGEMSFLQHNKCECRPKKD
In the case of B14, in the assay with KDR (1-3), the IC50 is 11 nM and the “Relative Binding Affinity” value is 11 fold of native VEGF (8-109).

B15: LK-VRB-15s (ligand)
chain: APMAEGGGQNHHEVVKFMDVLQRSSCHPIETLVDIFQEYPDEIEYIFKPSCVPLMRCGGCCNSEMRECVPTEESNITMQIMRIKPHQGQHIGEMSFLQHNKCECRPKKD
For B15, in the assay with KDR (1-3), the IC50 was determined as 2 nM and the “Relative Binding Affinity” value is 2 fold of native VEGF (8-109).

B16: LK-VRB-2s* (ligand)
chain: APMAEGGGQNHHEVVKFMDVYQRSYCHPIETLVDIFQEYPDEIEYIFKPSCVPLMRCGGCCNSEMRECVPTEESNITMQIMRIKPHQGQHIGEMSFLQHNKCECRPKKD
As to B16, in assay [1], the “Endothelial Cell Proliferation Activity (HUVEC, 3H-thymidine), concentration” value amounted to 0.05 nM. Further, the “Phosphorylation-Inducing Activity (KIRA), concentration at midpoint” value in assay [2] stood at 2 nM.

B17: LK-VRB-16s (ligand)
chain: APMAEGGGQNHHEVVKFMDVYRRSSCHPIETLVDIFQEYPDEIEYIFKPSCVPLMRCGGCCNSEMRECVPTEESNITMQIMRIKPHQGQHIGEMSFLQHNKCECRPKKD
As to B17, in the assay with KDR (1-3), the IC50 came to 0.6 nM and the “Relative Binding Affinity” value was 0.6 fold of native VEGF (8-109).

B18: LK-VRB-7s* (ligand)
chain: APMAEGGGQNHHEVVKFEDVYQRSYCHPIETLVDIFQEYPDEIEYIFKPSCVPLMRCGGCCNSEMRECVPTEESNITMQIMRIKPHQGQHIGEMSFLQHNKCECRPKKD
B18: in assay [1], the “Endothelial Cell Proliferation Activity (HUVEC, 3H-thymidine), concentration” value is 0.5 nM and the “Endothelial Cell Proliferation Activity (HUVEC, 3H-thymidine), ratio to native VEGF (8-109)” value was 1 fold of native VEGF (8-109). Also, in the assay with Flt-IgG, the “Relative Binding Affinity” value is > 15000 fold of native VEGF (8-109). In the assay with KDR (1-3), the IC50 was 1 nM and the “Relative Binding Affinity” value is 1 fold of native VEGF (8-109).

B19: LK-VRB-9s (ligand)
chain: APMAEGGGQNHHEVVKFMDVYRRSYCHPIETLVDIFQEYPDEIEYIFKPSCVPLMRCGGCCNSEMRECVPTEESNITMQIMRIKPHQGQHIGEMSFLQHNKCECRPKKD
For B19, the “Relative Binding Affinity” value in the assay with Flt-IgG was 300 fold of native VEGF (8-109). In the assay with KDR (1-3), the IC50 was found to be 0.5 nM and the “Relative Binding Affinity” value was 0.5 fold of native VEGF (8-109).

B20: LK-VRB-3s (ligand)
chain: APMAEGGGQNHHEVVKIEDVFKRSSCHPIETLVDIFQEYPDEIEYIFKPSCVPLMRCGGCCNDEGLECVPTEESNITMQIMRIKPHQGQHIGEMSFLQHNKCECRPKKD
As for B20, in assay [2], the “Phosphorylation-Inducing Activity (KIRA), concentration at midpoint” value was found to be 2 nM and the “Phosphorylation-Inducing Activity (KIRA), ratio to native VEGF (8-109)” value is 1 fold of native VEGF (8-109). In the assay with Flt-IgG, the IC50 was determined as 170 nM and the “Relative Binding Affinity” value is 400 fold of native VEGF (8-109). Further, in the assay with KDR (1-3), the IC50 was found to be 1 nM and the “Relative Binding Affinity” value was 1 fold of native VEGF (8-109).

B21: LK-VRB-13s (ligand)
chain: APMAEGGGQNHHEVVKFEDVYQRSSCHPIETLVDIFQEYPDEIEYIFKPSCVPLMRCGGCCNSEMRECVPTEESNITMQIMRIKPHQGQHIGEMSFLQHNKCECRPKKD
Consider B21, for which, in the assay with KDR (1-3), the IC50 came to 14 nM and the “Relative Binding Affinity” value is 14 fold of native VEGF (8-109).

B22: LK-VRB-11s (ligand)
chain: APMAEGGGQNHHEVVKFEDVLQRSYCHPIETLVDIFQEYPDEIEYIFKPSCVPLMRCGGCCNSEMRECVPTEESNITMQIMRIKPHQGQHIGEMSFLQHNKCECRPKKD
B22: in the assay with KDR (1-3), the IC50 turned out to be 2 nM and the “Relative Binding Affinity” value was 2 fold of native VEGF (8-109).

B23: LK-VRB-24s (ligand)
chain: APMAEGGGQNHHEVVKFEDVLRRSSCHPIETLVDIFQEYPDEIEYIFKPSCVPLMRCGGCCNSEMLECVPTEESNITMQIMRIKPHQGQHIGEMSFLQHNKCECRPKKD
B23: in the assay with KDR (1-3), the IC50 was 10 nM and the “Relative Binding Affinity” value is 10 fold of native VEGF (8-109).

B24: native VEGF (8-109) (ligand)
chain: GQNHHEVVKFMDVYQRSYCHPIETLVDIFQEYPDEIEYIFKPSCVPLMRCGGCCNDEGLECVPTEESNITMQIMRIKPHQGQHIGEMSFLQHNKCECRPKKD
On to B24, for which the “Endothelial Cell Proliferation Activity (HUVEC, 3H-thymidine), concentration” value in assay [1] was 0.5 nM. In addition, the “Phosphorylation-Inducing Activity (KIRA), concentration at midpoint” value in assay [2] amounted to 2 nM. The IC50 with Flt-IgG stood at 0.42 nM.
